57 substances from the Human Domainome abundance scans (Beltran et al. 2025) can be followed below.

± gives the uncertainty stated by the source.

The nature of the data set: abundance fitness (aPCA) (normalised: wild type 0, dead -1); higher = more abundant; growth selection in yeast, the domain comes from the species named. To be noted: Homo sapiens.
“NEDD4-like E3 ubiquitin-protein ligase WWP2 K473A, O00308” came in with an abundance fitness of -0.111 ± 0.045.
Consider “NEDD4-like E3 ubiquitin-protein ligase WWP2 K473C, O00308”, for which the abundance fitness was -0.003 ± 0.066.
On to “NEDD4-like E3 ubiquitin-protein ligase WWP2 K473E, O00308”, for which the abundance fitness was -0.059 ± 0.035.
Then “NEDD4-like E3 ubiquitin-protein ligase WWP2 K473F, O00308”, with 0.102 ± 0.082; and “NEDD4-like E3 ubiquitin-protein ligase WWP2 K473H, O00308”, with -0.1 ± 0.055; and “NEDD4-like E3 ubiquitin-protein ligase WWP2 K473I, O00308”, with 0.028 ± 0.07.
Then “NEDD4-like E3 ubiquitin-protein ligase WWP2 K473L, O00308”, with -0.165 ± 0.058; and “NEDD4-like E3 ubiquitin-protein ligase WWP2 K473M, O00308”, with 0.093 ± 0.08; and “NEDD4-like E3 ubiquitin-protein ligase WWP2 K473N, O00308”, with -0.402 ± 0.095.
To “NEDD4-like E3 ubiquitin-protein ligase WWP2 K473P, O00308” belongs -1.11 ± 0.12.
As to “NEDD4-like E3 ubiquitin-protein ligase WWP2 K473Q, O00308”, the abundance fitness is -0.091 ± 0.082.
To “NEDD4-like E3 ubiquitin-protein ligase WWP2 K473R, O00308” belongs -0.081 ± 0.055.
As to “NEDD4-like E3 ubiquitin-protein ligase WWP2 K473S, O00308”, the abundance fitness was -0.128 ± 0.055.
Then “NEDD4-like E3 ubiquitin-protein ligase WWP2 K473T, O00308”, with -0.097 ± 0.066.
To “NEDD4-like E3 ubiquitin-protein ligase WWP2 K473V, O00308” belongs 0.112 ± 0.041; to “NEDD4-like E3 ubiquitin-protein ligase WWP2 K473W, O00308”, -0.026 ± 0.075.
The substance “NEDD4-like E3 ubiquitin-protein ligase WWP2 K473Y, O00308” had an abundance fitness of 0.087 ± 0.071.
Then “NEDD4-like E3 ubiquitin-protein ligase WWP2 K484A, O00308”, with -0.073 ± 0.058; and “NEDD4-like E3 ubiquitin-protein ligase WWP2 K484C, O00308”, with -0.033 ± 0.055; and “NEDD4-like E3 ubiquitin-protein ligase WWP2 K484D, O00308”, with -0.028 ± 0.073.
In turn, “NEDD4-like E3 ubiquitin-protein ligase WWP2 K484E, O00308” returned an abundance fitness of -0.037 ± 0.061.
The substance “NEDD4-like E3 ubiquitin-protein ligase WWP2 K484F, O00308” displayed an abundance fitness of -0.24 ± 0.073.
To “NEDD4-like E3 ubiquitin-protein ligase WWP2 K484H, O00308” belongs -0.192 ± 0.081.
To “NEDD4-like E3 ubiquitin-protein ligase WWP2 K484I, O00308” belongs -0.157 ± 0.064.
The substance “NEDD4-like E3 ubiquitin-protein ligase WWP2 K484L, O00308” registered an abundance fitness of -0.064 ± 0.03.
Substance “NEDD4-like E3 ubiquitin-protein ligase WWP2 K484M, O00308” came in with an abundance fitness of 0.044 ± 0.058.
To “NEDD4-like E3 ubiquitin-protein ligase WWP2 K484N, O00308” belongs -0.056 ± 0.053; to “NEDD4-like E3 ubiquitin-protein ligase WWP2 K484P, O00308”, -0.05 ± 0.034.
To “NEDD4-like E3 ubiquitin-protein ligase WWP2 K484Q, O00308” belongs -0.025 ± 0.068.
Then “NEDD4-like E3 ubiquitin-protein ligase WWP2 K484R, O00308”, with -0.062 ± 0.038; and “NEDD4-like E3 ubiquitin-protein ligase WWP2 K484S, O00308”, with -0.007 ± 0.037.
“NEDD4-like E3 ubiquitin-protein ligase WWP2 K484T, O00308” displayed an abundance fitness of -0.025 ± 0.039.
Then “NEDD4-like E3 ubiquitin-protein ligase WWP2 K484V, O00308”, with -0.143 ± 0.046; and “NEDD4-like E3 ubiquitin-protein ligase WWP2 K484W, O00308”, with -0.101 ± 0.052; and “NEDD4-like E3 ubiquitin-protein ligase WWP2 K484Y, O00308”, with -0.071 ± 0.029.
To “NEDD4-like E3 ubiquitin-protein ligase WWP2 L446A, O00308” belongs -0.4 ± 0.037.
On to “NEDD4-like E3 ubiquitin-protein ligase WWP2 L446C, O00308”, for which the abundance fitness was -0.065 ± 0.054.
Take “NEDD4-like E3 ubiquitin-protein ligase WWP2 L446D, O00308”: the abundance fitness is -0.556 ± 0.048.
Substance “NEDD4-like E3 ubiquitin-protein ligase WWP2 L446E, O00308” displayed an abundance fitness of -0.576 ± 0.051.
To “NEDD4-like E3 ubiquitin-protein ligase WWP2 L446F, O00308” belongs -0.011 ± 0.07; to “NEDD4-like E3 ubiquitin-protein ligase WWP2 L446H, O00308”, -0.641 ± 0.12; to “NEDD4-like E3 ubiquitin-protein ligase WWP2 L446I, O00308”, -0.214 ± 0.081.
On to “NEDD4-like E3 ubiquitin-protein ligase WWP2 L446K, O00308”, for which the abundance fitness was -0.688 ± 0.094.
To “NEDD4-like E3 ubiquitin-protein ligase WWP2 L446M, O00308” belongs -0.05 ± 0.03.
“NEDD4-like E3 ubiquitin-protein ligase WWP2 L446P, O00308” showed an abundance fitness of -0.394 ± 0.083.
To “NEDD4-like E3 ubiquitin-protein ligase WWP2 L446Q, O00308” belongs -0.491 ± 0.058; to “NEDD4-like E3 ubiquitin-protein ligase WWP2 L446R, O00308”, -0.901 ± 0.054.
To “NEDD4-like E3 ubiquitin-protein ligase WWP2 L446S, O00308” belongs -0.601 ± 0.054; to “NEDD4-like E3 ubiquitin-protein ligase WWP2 L446T, O00308”, -0.384 ± 0.071.
“NEDD4-like E3 ubiquitin-protein ligase WWP2 L446V, O00308” had an abundance fitness of -0.29 ± 0.052.
As to “NEDD4-like E3 ubiquitin-protein ligase WWP2 L446W, O00308”, the abundance fitness is -0.435 ± 0.065.
“NEDD4-like E3 ubiquitin-protein ligase WWP2 L446Y, O00308” came in with an abundance fitness of -0.072 ± 0.07.
Then “NEDD4-like E3 ubiquitin-protein ligase WWP2 M440A, O00308”, with -0.137 ± 0.1; and “NEDD4-like E3 ubiquitin-protein ligase WWP2 M440C, O00308”, with -0.491 ± 0.32; and “NEDD4-like E3 ubiquitin-protein ligase WWP2 M440D, O00308”, with -0.138 ± 0.29.
Substance “NEDD4-like E3 ubiquitin-protein ligase WWP2 M440E, O00308” registered an abundance fitness of -0.085 ± 0.11.
The substance “NEDD4-like E3 ubiquitin-protein ligase WWP2 M440G, O00308” showed an abundance fitness of -0.284 ± 0.11.
